The target in data set [1] is hL1ORF1p-Δcons (non-conserved N-terminal portion of human L1ORF1p, GPHM1-E103) (human) (UniProt Q9UN81). The experiment in a line: SEC-MALS; hL1ORF1p-Δcons at 5.2 mM, Superdex 75 (10/300 GL), gel filtration buffer; monomer to dimer.
Data set [2] concerns the molecule itself. The data set is described as follows: SEC-MALS; Superdex 200 (10/300 GL), gel filtration buffer (10 mM HEPES pH 7.5, 300 mM NaCl, 1 mM DTT). In general terms: In gel filtration, larger molecules generally elute earlier.

This note sets out measurements from publication PMC5940361, “Human LINE-1 retrotransposition requires a metastable coiled coil and a positively charged N-terminus in L1ORF1p” (eLife, 2018).

Usually stoichiometry N stands for a count of units in the complex or per binding partner. For the molecule “hL1ORF1p-Δcons (non-conserved N-terminal portion of human L1ORF1p, GPHM1-E103) (from UniProt Q9UN81 1-103) (domain or fragment)”, in data set [1], the stoichiometry N came to 2.

B1: hL1ORF1p-cc (coiled coil domain of human L1ORF1p, GPHMS53-Y152) (domain or fragment)
chain: GPHMSELREDIQTKGKEVENFEKNLEECITRITNTEKCLKELMELKTKARELREECRSLRSRCDQLEERVSAAEDEINEIKREGKFREKRIKRNEQSLQEIWDY
notes: residues printed before S53 in the construct's description (GPHMS53-Y152); not from L1ORF1p; human LINE-1 ORF1 protein (L1ORF1p) of the L1.3 element, residues S53-Y152, amplified from a plasmid with the M121A/M125I/M128I triple mutation; The M of GPHM probably stands at position 52 in place of Y52 (the structure is described as residues 52-152); also called L1ORF1p coiled coil domain; coiled coil …
With B1, the “stoichiometry N” value in data set [2] is 3.

B2: hL1ORF1p-ΔNTR (human L1ORF1p without the NTR, GPHMS53-M338) (domain or fragment)
chain: GPHMSELREDIQTKGKEVENFEKNLEECITRITNTEKCLKELMELKTKARELREECRSLRSRCDQLEERVSAAEDEINEIKREGKFREKRIKRNEQSLQEIWDYVKRPNLRLIGVPESDVENGTKLENTLQDIIQENFPNLARQANVQIQEIQRTPQRYSSRRATPRHIIVRFTKVEMKEKMLRAAREKGRVTLKGKPIRLTADLSAETLQARREWGPIFNILKEKNFQPRISYPAKLSFISEGEIKYFIDKQMLRDFVTTRPALKELLKEALNMERNNRYQPLQNHAKM
notes: residues printed before S53 in the construct's description (GPHMS53-M338); not from L1ORF1p; also called remainder of human L1ORF1p; truncated trimer; not shown: His6, N-terminal, cleaved
For the molecule B2, the “stoichiometry N” value in data set [2] is 3.
